According to patent publication US4585754A, “Stabilization of proteins and peptides by chemical binding with chondroitin” (Valcor Scientific, Ltd., priority 1984, dated 1986):

Key:
blood glucose levels = assay: lowering blood glucose levels in mice, bound versus free insulin; format: in vivo, Female CD-1 Swiss white mice; details: subcutaneous, fasted mice
Method: Female CD-1 Swiss white mice averaging 20 g in weight were fasted overnight and used in groups of four. The insulins were injected subcutaneously, and blood specimens (50 microliters, by retro-orbital bleeding) were taken at intervals of 0.5, 3, 6, and 24 hours.

[1] = native, unmodified protein; cited from earlier work
trypsin = assay: stability against proteolytic digestion by trypsin; format: in vitro ADME; details: 50 mcg./ml. trypsin, pH 7.8, 23 C, 10 mg./ml., after just over forty minutes
Method: (§1) The SOD-chondroitin sulfate A product was tested for stability against proteolytic digestion. An aqueous solution containing 10 mg./ml. of the product was incubated with 50 mcg./ml. of trypsin at pH 7.8 and 23 C, and aliquots were withdrawn from time to time and the SOD activity determined. For comparison, SOD alone with incubated with trypsin under the same conditions. After just over forty minutes, approximately 88 percent of the SOD-chondroitin product remained in the solution, compared with only about 8 percent of the unprotected SOD. This is a difference in stability of over eight-fold.

pepsin = assay: stability against proteolytic digestion by pepsin; format: in vitro ADME; details: pepsin 500 ng./ml., pH 3.5, at two minutes
Method: as §1
Inasmuch as trypsin is known to be a very specific protease, cleaving only at the arginine and lysine residues, a further test was carried out according to substantially the same procedure using pepsin, a much more vigorous protease. The pH was kept low (3.5), since the optimum pH for pepsin is known to about 1.0-1.5. Even at the lowest concentration of pepsin tested (500 ng./ml.), digestion was very fast, but there was some degree of protection by the chondroitin compared with unprotected SOD.

Substance | blood glucose level at 24 hours (blood glucose levels; all dose levels, 24 hours) | comatose state (blood glucose levels; doses of 5.7 micrograms and above) | half-life in the body [1] | percent remaining in the solution (SOD activity) (trypsin) | SOD remaining after pepsin digestion (pepsin)
insulin [free insulin] | significant rebound glucose level by 24 hours | comatose in one-half hour | about 15 minutes | – | –
superoxide dismutase [unprotected SOD] | – | – | about five | about 8% | essentially all destroyed
